Results from patent publication US20080311122A1, “Antagonists of Hmgb1 and/or Rage and Methods of Use Thereof” (Medimmune, LLC, priority 2005, published 2008).

T1: HMGB-1 (Homo sapiens, UniProt P09429)
T1 sequence (P09429 1-215): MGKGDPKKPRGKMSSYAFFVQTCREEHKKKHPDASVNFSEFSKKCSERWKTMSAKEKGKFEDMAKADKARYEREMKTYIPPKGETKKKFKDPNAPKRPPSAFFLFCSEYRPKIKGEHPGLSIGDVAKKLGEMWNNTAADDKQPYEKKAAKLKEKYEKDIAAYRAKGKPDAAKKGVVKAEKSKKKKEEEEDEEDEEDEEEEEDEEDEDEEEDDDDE

B1: S16: human anti-HMG1 antibody, ATCC PTA-6259; VL/VH aa SEQ ID NO: 13/15 (antibody, listed as Homo sapiens, V domains shown)
VH: EVQLLESGGGLVQPGGSLRLSCAASGFTFSWYSMLWVRQAPGKGLEWVSYISPSGGFTNYADSVKGRFTISRDNSKNTLYLQMNSLRAEDTAVYYCARWDYNSGWYYDHWGQGTLVTVSS
VL: AQDIQMTQSPDTLSLSPGERATLSCRASQSVNSRNLAWYQQKPGQAPRLLIYGASTRATGIPDRFSGSVSGTEFTLTISSLQPDDFATYYCQQYNSYFTFGQGTKLEIK
B2: G9: human anti-HMG1 antibody; VL/VH aa SEQ ID NO: 34/36 (antibody, listed as Homo sapiens, V domains shown)
VH: EVQLLESGGGLVQPGGSLRLSCAASGFTFSSYDMFWVRQAPGKGLEWVSRISPSGGYTYYADSVKGRFTISRDNSKNTLYLQMNSLRAEDTAVYYCARLRYFDSRGYAFDIWGQGTMVTVSS
VL: AQDIQMTQSPGTLSLSPGERATLSCRASQSVRSSYLAWYQQKPGQAPRLLIYGASTRATGIPDRFSGSGSGTDFTLTISRLEPEDFAVYYCQQYGTSRWTFGQGTKVEIK

Tests used:
[1] = tested on: AIA rat model of arthritis; test: Adjuvant-induced arthritis (AIA) rat model; format: in vivo; details: percent protection, isotype control subtracted
Procedure: Induction of Adjuvant Induced Arthritis […]: Six-eight week old female DA rats (Harlen) were used. On day 0, isoflurane anesthetized animals were given an intradermal injection, at base of tail, 0.75 mg of mycobacterium butyricum (Difco #0640-33-7) mixed in 100 μl incomplete Freund's adjuvant (Difco, Detroit, Mich.).
The human anti-HMG1 antibody G4, the A-box-Fc fusion and the huIgG isotype control were administered at 10 mg/kg, every 3 days, day 0-15. Methotrexate was administered at 0.8 mg/kg, every 6 days, day 0-15 and Renbrel was administered at either 2.5 mg/kg every two days, day 0-15 for treatment group 5 or at 4 mg/kg, every 3 days, day 0-15 for treatment group 6. […]
Monitoring Disease: Beginning at day 6 all animals were observed daily to assess the status of the disease in their paws, which was done by assigning a qualitative clinical score to each of the paws. Every day, each animal has its 4 paws scored according to its state of clinical disease. […] In addition, each mouse is weighed, to follow body weight changes, at the same time the paws are scored.
The joints of the 4 lateral digits of each paw are graded as involved or not involved, i.e., 1 or 0. For example, a maximally involved left rear paw would be scored: ankles=4, midfoot=4, MTP=4, PIP=4, DIP=4 (20 units). […]

[2] = target: T1, HMGB-1; test: Antibody HMG1 binding competition via BIAcore analysis
Procedure: Antibody HMG1 Binding Competition via BIAcore Analysis: All experiments were performed on a BIAcore 3000 instrument (BIAcore, Inc., Piscataway, N.J.). The HMGB-1 protein was immobilized onto a CM5 sensor using a standard amine coupling chemistry protocol, as described in the BIAcore Handbook (BIAcore, Inc., Piscataway, N.J.). Briefly, the CM5 surface subject to the NHS/EDC activation. After activation a HMGB-1 was injected over the surface at a concentration of 100 nM or 200 nM (in 10 mM NaOAc, pH4) to a surface density of between 1100 and 1200 RU's. Following this, unreacted sites on the sensor chip surface were “capped” with an injection of 1M ethanolamine. For reference purposes, a blank flow cell was also prepared, utilizing this same procedure that was used to immobilize HMGB-1, but without any ligand.
MAbs G2, G4, G9, S6 and Synagis were prepared at 1 uM and 2 uM. All mAb solutions were prepared in HBS-EP buffer (BIAcore, Inc., Piscataway, N.J.). Each cycle started with a 100 μL injection of the first mAb, injected at 1 μM, followed by a second 100 μL injection of a 1:1 mixture of two, 2× concentration mAbs, such that the final concentration of each component mAb in the mixture is equivalent to the first injection. […]
Once the entire set had been collected, the maximum RU responses for each mAb after each injection cycle was recorded. […]

Molecule	in vivo AIA [1]	binding sites on HMGB1 by BIAcore competition [2]
B1	0%	–
B2	–	bind to either the same site or sites that are highly related perhaps overlapping
